Legend:
[1] = target: KLB (β-klotho) on KLB only expressing cells (UniProt Q86Z14); assay: cell-based or functional assay
[2] = target: KLB/FGFR4 on KLB/FGFR4 expressing cells (UniProt Q86Z14); assay: cell-based or functional assay
Sequence of KLB/FGFR4 on KLB/FGFR4 expressing cells (Q86Z14 whole entry, chain 1 of 2): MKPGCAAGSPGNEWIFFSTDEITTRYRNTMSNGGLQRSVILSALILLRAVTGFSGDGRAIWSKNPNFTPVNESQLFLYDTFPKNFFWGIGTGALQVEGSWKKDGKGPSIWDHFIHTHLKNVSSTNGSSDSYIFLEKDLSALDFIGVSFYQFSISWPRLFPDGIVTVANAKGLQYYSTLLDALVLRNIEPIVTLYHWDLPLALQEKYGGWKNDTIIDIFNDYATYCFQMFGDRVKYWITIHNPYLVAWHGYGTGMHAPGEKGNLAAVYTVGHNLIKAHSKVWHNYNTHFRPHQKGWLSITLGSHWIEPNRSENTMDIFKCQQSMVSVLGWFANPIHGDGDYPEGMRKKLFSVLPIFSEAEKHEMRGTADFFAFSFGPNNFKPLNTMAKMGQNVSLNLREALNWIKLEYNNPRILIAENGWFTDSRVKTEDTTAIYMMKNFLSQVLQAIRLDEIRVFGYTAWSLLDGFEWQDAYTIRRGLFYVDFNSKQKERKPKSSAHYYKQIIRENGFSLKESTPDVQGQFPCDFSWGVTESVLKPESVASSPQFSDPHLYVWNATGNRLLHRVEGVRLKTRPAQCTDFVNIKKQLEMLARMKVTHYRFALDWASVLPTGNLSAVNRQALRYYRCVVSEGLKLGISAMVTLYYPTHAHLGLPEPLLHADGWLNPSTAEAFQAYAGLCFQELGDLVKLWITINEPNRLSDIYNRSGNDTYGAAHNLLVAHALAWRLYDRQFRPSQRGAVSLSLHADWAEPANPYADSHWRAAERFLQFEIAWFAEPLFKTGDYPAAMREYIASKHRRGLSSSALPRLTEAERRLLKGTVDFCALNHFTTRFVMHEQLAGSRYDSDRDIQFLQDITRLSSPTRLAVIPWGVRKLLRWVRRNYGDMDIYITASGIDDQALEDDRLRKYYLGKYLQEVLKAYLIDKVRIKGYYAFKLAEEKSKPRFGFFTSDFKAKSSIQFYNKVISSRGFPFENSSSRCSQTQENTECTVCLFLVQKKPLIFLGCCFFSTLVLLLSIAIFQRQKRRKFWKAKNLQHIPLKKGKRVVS
Sequence of KLB/FGFR4 on KLB/FGFR4 expressing cells (P22455 22-802 limits assumed, chain 2 of 2, further chain): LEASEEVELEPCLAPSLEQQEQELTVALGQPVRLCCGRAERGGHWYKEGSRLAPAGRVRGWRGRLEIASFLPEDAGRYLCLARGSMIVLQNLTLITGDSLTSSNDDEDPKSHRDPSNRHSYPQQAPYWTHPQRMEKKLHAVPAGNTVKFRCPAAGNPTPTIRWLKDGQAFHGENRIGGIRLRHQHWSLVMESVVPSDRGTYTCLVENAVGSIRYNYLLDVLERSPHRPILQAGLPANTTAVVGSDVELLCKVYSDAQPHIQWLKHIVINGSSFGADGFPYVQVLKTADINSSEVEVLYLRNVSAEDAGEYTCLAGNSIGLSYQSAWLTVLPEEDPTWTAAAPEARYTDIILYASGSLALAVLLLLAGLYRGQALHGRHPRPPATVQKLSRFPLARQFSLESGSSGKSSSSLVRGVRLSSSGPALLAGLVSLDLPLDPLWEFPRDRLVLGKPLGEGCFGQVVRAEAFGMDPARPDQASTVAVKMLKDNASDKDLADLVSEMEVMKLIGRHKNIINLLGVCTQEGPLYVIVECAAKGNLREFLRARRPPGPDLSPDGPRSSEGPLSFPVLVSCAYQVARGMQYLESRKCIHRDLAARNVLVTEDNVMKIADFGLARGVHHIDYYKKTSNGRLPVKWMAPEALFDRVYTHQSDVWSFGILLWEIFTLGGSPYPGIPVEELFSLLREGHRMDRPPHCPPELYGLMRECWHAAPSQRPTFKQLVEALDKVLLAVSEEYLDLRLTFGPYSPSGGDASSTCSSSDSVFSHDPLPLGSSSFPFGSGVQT

Sequence of KLB (β-klotho) on KLB only expressing cells (Q86Z14 whole entry): as the sequence (Q86Z14 whole entry, chain 1 of 2) above

Row | pERK functional assay, fold increase of pERK at 3000 nM [1] [fold] | pERK functional assay, fold increase in pERK at 3000 nM [2] [fold] | Substance
1 | 2 | – | FGF-19 (from UniProt O95750 25-216) (ligand)
2 | – | < 2 | Mutant FGF21-GalNAc-SA-PEG-20 kDa (BIO89-100) (from UniProt Q9NSA1 29-209) (ligand)
3 | 2 | < 2 | FGF-21 (native / wild type human Fibroblast Growth Factor-21) (from UniProt Q9NSA1 29-209) (ligand)
